Values of other authors as cited in patent publication US8901167B2, “Product and process for inhibition of biofilm development” (National Jewish Health, priority 2004, dated 2014).

B1: lactoferrin: a major component of the secondary neutrophil granules (protein, UniProt P02788 20-710, looked up)
Lactotransferrin: GRRRSVQWCAVSQPEATKCFQWQRNMRKVRGPPVSCIKRDSPIQCIQAIAENRADAVTLDGGFIYEAGLAPYKLRPVAAEVYGTERQPRTHYYAVAVVKKGGSFQLNELQGLKSCHTGLRRTAGWNVPIGTLRPFLNWTGPPEPIEAAVARFFSASCVPGADKGQFPNLCRLCAGTGENKCAFSSQEPYFSYSGAFKCLRDGAGDVAFIRESTVFEDLSDEAERDEYELLCPDNTRKPVDKFKDCHLARVPSHAVVARSVNGKEDAIWNLLRQAQEKFGKDKSPKFQLFGSPSGQKDLLFKDSAIGFSRVPPRIDSGLYLGSGYFTAIQNLRKSEEEVAARRARVVWCAVGEQELRKCNQWSGLSEGSVTCSSASTTEDCIALVLKGEADAMSLDGGYVYTAGKCGLVPVLAENYKSQQSSDPDPNCVDRPVEGYLAVAVVRRSDTSLTWNSVKGKKSCHTAVDRTAGWNIPMGLLFNQTGSCKFDEYFSQSCAPGSDPRSNLCALCIGDEQGENKCVPNSNERYYGYTGAFRCLAENAGDVAFVKDVTVLQNTDGNNNEAWAKDLKLADFALLCLDGKRKPVTEARSCHLAMAPNHAVVSRMDKVERLKQVLLHQQAKFGRNGSDCPDKFCLFQSETKNLLFNDNTECLARLHGKTTYEKYLGPQYVAGITNLKKCSTSPLLEACEFLRK
B2: rhDNase: purified rhDNase (Pulmozyme; Genentech), digests extracellular DNA present in the CF airway (protein, UniProt P24855 23-282, looked up)
Deoxyribonuclease-1: LKIAAFNIQTFGETKMSNATLVSYIVQILSRYDIALVQEVRDSHLTAVGKLLDNLNQDAPDTYHYVVSEPLGRNSYKERYLFVYRPDQVSAVDSYYYDDGCEPCGNDTFNREPAIVRFFSRFTEVREFAIVPLHAAPGDAVAEIDALYDVYLDVQEKWGLEDVMLMGDFNAGCSYVRPSQWSSIRLWTSPTFQWLIPDSADTTATPTHCAYDRIVVAGMLLRGAVVPDSALPFNFQAAYGLSDQLAQAISDHYPVEVMLK

Assays:
P. aeruginosa biofilm = conditions: literature refs 39, 43
[1] = test system: extracellular DNA present in the CF airway; conditions: inhalation, CF patients; Fuchs et al. 1994

Row | Molecule | Effect on P. aeruginosa biofilm formation (P. aeruginosa biofilm) | Clinical effect on sputum viscosity and forced expiratory volume (FEV) [1]
1 | B1 | prevent P. aeruginosa biofilm development | –
2 | B2 | – | clinically effective for diminishing sputum viscosity and stabilizing the forced expiratory volume
